Data from patent WO2011004847A1 (dated 2011).
Values joined by “and” are separate entries in the source; they are usually repeats but may differ in a detail not shown here. Equal values may be shown once.

T1: human α9 integrin molecule expressed on SW480 cells (human, UniProt Q13797 30-1035)
T1 sequence (looked up): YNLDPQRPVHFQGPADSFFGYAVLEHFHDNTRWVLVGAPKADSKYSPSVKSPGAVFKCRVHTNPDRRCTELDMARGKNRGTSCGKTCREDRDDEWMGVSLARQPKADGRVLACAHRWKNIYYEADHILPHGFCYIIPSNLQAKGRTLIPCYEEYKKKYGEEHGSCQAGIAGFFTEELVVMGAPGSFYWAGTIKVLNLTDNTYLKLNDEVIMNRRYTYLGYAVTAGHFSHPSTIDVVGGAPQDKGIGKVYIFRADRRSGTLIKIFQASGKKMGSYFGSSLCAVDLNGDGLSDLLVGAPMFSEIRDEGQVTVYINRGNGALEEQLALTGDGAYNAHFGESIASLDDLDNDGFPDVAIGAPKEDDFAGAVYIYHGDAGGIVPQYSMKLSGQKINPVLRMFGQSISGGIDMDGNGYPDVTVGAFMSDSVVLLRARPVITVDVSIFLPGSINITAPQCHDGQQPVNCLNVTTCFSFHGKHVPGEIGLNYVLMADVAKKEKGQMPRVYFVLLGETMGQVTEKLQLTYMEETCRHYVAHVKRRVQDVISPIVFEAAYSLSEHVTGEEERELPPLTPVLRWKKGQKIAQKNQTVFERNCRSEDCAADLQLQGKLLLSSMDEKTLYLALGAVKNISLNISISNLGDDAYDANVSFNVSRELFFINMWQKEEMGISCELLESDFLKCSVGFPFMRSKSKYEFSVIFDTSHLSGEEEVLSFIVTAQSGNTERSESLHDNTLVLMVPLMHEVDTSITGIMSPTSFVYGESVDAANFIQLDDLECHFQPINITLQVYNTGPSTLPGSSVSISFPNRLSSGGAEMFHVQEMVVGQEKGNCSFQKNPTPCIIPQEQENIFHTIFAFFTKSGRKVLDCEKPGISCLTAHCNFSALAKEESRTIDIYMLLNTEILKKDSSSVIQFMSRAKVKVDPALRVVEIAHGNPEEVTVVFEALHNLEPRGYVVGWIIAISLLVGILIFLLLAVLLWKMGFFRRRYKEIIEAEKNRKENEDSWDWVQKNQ


Target: T1, human α9 integrin molecule expressed on …
Assay: cell-based or functional assay

| Binder | cell adhesion inhibitory activity relative to mouse Y9A2 antibody [fold] | concentration giving significant inhibition of migration of SW480/hα9 cells toward nOPN-RAA [µg/mL] | IC50 (μg/mL), cell adhesion inhibition test |
| --- | --- | --- | --- |
| RY9A2v12 (W33FM34L) 012 antibody (antibody, human IgG1, kappa, V domains shown) VH: QVQLVQSGAEVKKPGSSVKVSCKASGYTLTTYFLHWVRQAPGQGLEWMGYINPSSGYTEYNQKFQGRVTITADKSTSTAYMELSSLRSEDTAVYYCAIYGDYGDFYFDYWGQGTTVTVSS VL: DIQMTQSPSSLSASVGDRVTITCRASQSVNTDVAWYQQKPGKAPKLLIYFASNHYTGVPSRFSGSGSGTDFTFTISSLQPEDIATYYCRQDYSSPFTFGGGTKVEIKR | ~4 | 5 |  |
| RY9A2v12 (W33YM34L) 012 antibody (antibody, human IgG1, kappa, V domains shown) VH: QVQLVQSGAEVKKPGSSVKVSCKASGYTLTTYYLHWVRQAPGQGLEWMGYINPSSGYTEYNQKFQGRVTITADKSTSTAYMELSSLRSEDTAVYYCAIYGDYGDFYFDYWGQGTTVTVSS VL: DIQMTQSPSSLSASVGDRVTITCRASQSVNTDVAWYQQKPGKAPKLLIYFASNHYTGVPSRFSGSGSGTDFTFTISSLQPEDIATYYCRQDYSSPFTFGGGTKVEIKR | ~4 | 5 |  |
| mouse anti-human α9 integrin antibody Y9A2 (antibody, V domains shown) VH: QVQLQQSGAELANPGASVKMSCKASGYTLTTYWMHWVKQRPGQGLEWIGYINPSSGYTEYNQKFKDKATLTADKSSSTAYMQLTSLTSEDSAVYYCAIYGDYGDFYFDYWGQGTTLTVSS VL: SIVMTQTPKFLLVSAGDRVTMTCKASQSVNTDVAWFQQKPGQSPKLLIYFASNHYTGVPDRFTGSGYGTDFTFTISTVQAEDLAIYFCRQDYSSPFTFGGGTKLEIKR |  | 50 | 0.07 µg/mL and 0.039 µg/mL |
